Experimental data from PMC2756588.

T1: Sla1-3, P32790
T1 sequence (P32790 344-424, looked up): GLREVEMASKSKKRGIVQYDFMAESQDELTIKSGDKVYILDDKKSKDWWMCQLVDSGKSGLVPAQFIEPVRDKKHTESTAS

T2: Boi1, P38041
T2 sequence (P38041 1-86, looked up): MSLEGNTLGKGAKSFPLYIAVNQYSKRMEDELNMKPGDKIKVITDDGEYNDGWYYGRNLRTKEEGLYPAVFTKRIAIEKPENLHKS

T3: Sla1-2, P32790
T3 sequence (P32790 60-140, looked up): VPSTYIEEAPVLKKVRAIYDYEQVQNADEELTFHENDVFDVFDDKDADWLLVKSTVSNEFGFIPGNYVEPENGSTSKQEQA

T4: Cdc25, P04821
T4 sequence (P04821 50-136, looked up): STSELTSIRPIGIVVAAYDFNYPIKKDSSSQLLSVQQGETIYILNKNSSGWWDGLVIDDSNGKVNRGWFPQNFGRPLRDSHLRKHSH

T5: Fus1, P11710
T5 sequence (P11710 432-512, looked up): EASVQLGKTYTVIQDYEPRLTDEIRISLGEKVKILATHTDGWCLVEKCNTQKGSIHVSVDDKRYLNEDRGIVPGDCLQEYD

T6: Myo5, Q04439
T6 sequence (Q04439 1072-1160, looked up): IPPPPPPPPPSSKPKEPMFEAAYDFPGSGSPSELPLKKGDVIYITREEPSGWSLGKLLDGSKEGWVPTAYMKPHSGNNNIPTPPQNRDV

T7: Bud14, P27637
T7 sequence (P27637 247-328, looked up): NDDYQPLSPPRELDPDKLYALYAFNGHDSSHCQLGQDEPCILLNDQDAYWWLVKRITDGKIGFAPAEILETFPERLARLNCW

T8: Lsb4, P32793
T8 sequence (P32793 402-468, looked up): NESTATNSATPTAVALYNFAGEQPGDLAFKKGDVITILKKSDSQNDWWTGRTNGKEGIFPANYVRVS

T9: Bzz1-1, P38822
T9 sequence (P38822 478-572, looked up): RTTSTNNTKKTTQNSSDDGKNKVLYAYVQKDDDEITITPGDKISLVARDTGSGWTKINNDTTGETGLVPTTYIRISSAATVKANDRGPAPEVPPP

T10: Lsb1, P53281
T10 sequence (P53281 45-122, looked up): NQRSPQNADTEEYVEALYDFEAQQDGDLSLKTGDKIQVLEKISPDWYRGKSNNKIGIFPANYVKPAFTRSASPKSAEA

T11: Abp1, P15891
T11 sequence (P15891 535-592, looked up): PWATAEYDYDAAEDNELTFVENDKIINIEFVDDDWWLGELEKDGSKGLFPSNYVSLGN

T12: Bbc1, P47068
T12 sequence (P47068 1-78, looked up): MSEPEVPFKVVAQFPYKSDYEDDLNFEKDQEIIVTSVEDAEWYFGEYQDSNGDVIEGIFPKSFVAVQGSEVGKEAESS

T13: Hof1, Q05080
T13 sequence (Q05080 590-669, looked up): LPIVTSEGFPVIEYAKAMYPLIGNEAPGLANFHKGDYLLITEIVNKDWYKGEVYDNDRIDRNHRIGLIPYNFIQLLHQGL

T14: Cyk3, Q07533
T14 sequence (Q07533 1-83, looked up): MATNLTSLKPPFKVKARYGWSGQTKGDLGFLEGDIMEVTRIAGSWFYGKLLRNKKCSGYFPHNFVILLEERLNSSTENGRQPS

T15: Nbp2, Q12163
T15 sequence (Q12163 103-180, looked up): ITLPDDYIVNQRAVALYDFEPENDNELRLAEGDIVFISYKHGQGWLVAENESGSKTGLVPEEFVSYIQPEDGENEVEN

T16: Boi2, P39969
T16 sequence (P39969 32-116, looked up): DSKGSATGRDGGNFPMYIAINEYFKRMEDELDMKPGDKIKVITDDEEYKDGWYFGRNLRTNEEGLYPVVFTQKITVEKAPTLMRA

T17: Hse1, P38753
T17 sequence (P38753 208-285, looked up): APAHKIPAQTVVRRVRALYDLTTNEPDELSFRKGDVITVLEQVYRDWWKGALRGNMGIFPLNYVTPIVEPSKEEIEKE

T18: Pin3, Q06449
T18 sequence (Q06449 53-122, looked up): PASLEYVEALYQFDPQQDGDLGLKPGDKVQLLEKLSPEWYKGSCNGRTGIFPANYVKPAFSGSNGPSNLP

T19: Bzz1-2, P38822
T19 sequence (P38822 568-633, looked up): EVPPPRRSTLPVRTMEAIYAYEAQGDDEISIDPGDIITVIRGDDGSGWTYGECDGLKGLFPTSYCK

T20: Lsb3, P43603
T20 sequence (P43603 385-451, looked up): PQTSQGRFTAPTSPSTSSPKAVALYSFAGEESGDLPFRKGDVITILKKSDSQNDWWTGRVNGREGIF

T21: Pex13, P80667
T21 sequence (P80667 295-386, looked up): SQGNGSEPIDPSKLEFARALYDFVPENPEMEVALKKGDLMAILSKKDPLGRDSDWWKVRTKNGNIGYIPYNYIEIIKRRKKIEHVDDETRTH


biological target: T1, Sla1-3, P32790; experiment: SPOT array; conditions: median of control spots 5475

SPOT intensity | Binder
213 | NLPKRKPPKLQGPFS
24 | DRIRMFIRFPKFLLE
24 | RKRAPTPPAPSRSEK

biological target: T2, Boi1, P38041; experiment: SPOT array; conditions: median of control spots 1162

SPOT intensity | Binder
2 | NLPKRKPPKLQGPFS
7 | DRIRMFIRFPKFLLE
1 | RKRAPTPPAPSRSEK

biological target: T3, Sla1-2, P32790; experiment: SPOT array; conditions: median of control spots 712

SPOT intensity | Binder
1 | NLPKRKPPKLQGPFS
0 | DRIRMFIRFPKFLLE
0 | RKRAPTPPAPSRSEK

biological target: Sho1, P40073; experiment: SPOT array; conditions: median of control spots 1148
Sequence (P40073 287-367): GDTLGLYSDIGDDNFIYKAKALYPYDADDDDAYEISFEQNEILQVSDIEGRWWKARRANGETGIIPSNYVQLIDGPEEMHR

SPOT intensity | Binder
121 | NLPKRKPPKLQGPFS
71 | DRIRMFIRFPKFLLE
99 | RKRAPTPPAPSRSEK

biological target: GST; experiment: SPOT array; conditions: median of control spots 978

SPOT intensity | Binder
1 | NLPKRKPPKLQGPFS
0 | DRIRMFIRFPKFLLE
1 | RKRAPTPPAPSRSEK

biological target: T4, Cdc25, P04821; experiment: SPOT array; conditions: median of control spots 969

SPOT intensity | Binder
53 | NLPKRKPPKLQGPFS
77 | DRIRMFIRFPKFLLE
15 | RKRAPTPPAPSRSEK

biological target: T5, Fus1, P11710; experiment: SPOT array; conditions: median of control spots 1200

SPOT intensity | Binder
6 | NLPKRKPPKLQGPFS
39 | DRIRMFIRFPKFLLE
14 | RKRAPTPPAPSRSEK

biological target: T6, Myo5, Q04439; experiment: SPOT array; conditions: median of control spots 471

SPOT intensity | Binder
3 | NLPKRKPPKLQGPFS
2 | DRIRMFIRFPKFLLE
0 | RKRAPTPPAPSRSEK

biological target: T7, Bud14, P27637; experiment: SPOT array; conditions: median of control spots 956

SPOT intensity | Binder
12 | NLPKRKPPKLQGPFS
8 | DRIRMFIRFPKFLLE
6 | RKRAPTPPAPSRSEK

biological target: Myo3, P36006; experiment: SPOT array; conditions: median of control spots 468

SPOT intensity | Binder
42 | NLPKRKPPKLQGPFS
18 | DRIRMFIRFPKFLLE
20 | RKRAPTPPAPSRSEK

biological target: T8, Lsb4, P32793; experiment: SPOT array; conditions: median of control spots 397

SPOT intensity | Binder
20 | NLPKRKPPKLQGPFS
7 | DRIRMFIRFPKFLLE
29 | RKRAPTPPAPSRSEK

biological target: T9, Bzz1-1, P38822; experiment: SPOT array; conditions: median of control spots 4446

SPOT intensity | Binder
9 | NLPKRKPPKLQGPFS
0 | DRIRMFIRFPKFLLE
27 | RKRAPTPPAPSRSEK

biological target: Bem1-2, P29366; experiment: SPOT array; conditions: median of control spots 4347
Sequence (P29366 139-227): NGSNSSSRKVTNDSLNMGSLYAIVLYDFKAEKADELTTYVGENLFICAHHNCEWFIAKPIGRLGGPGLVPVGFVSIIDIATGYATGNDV

SPOT intensity | Binder
81 | NLPKRKPPKLQGPFS
20 | DRIRMFIRFPKFLLE
0 | RKRAPTPPAPSRSEK

biological target: T10, Lsb1, P53281; experiment: SPOT array; conditions: median of control spots 388

SPOT intensity | Binder
0 | NLPKRKPPKLQGPFS
4 | DRIRMFIRFPKFLLE
1290 | RKRAPTPPAPSRSEK

biological target: Rvs167, P39743; experiment: SPOT array; conditions: median of control spots 2707
Sequence (P39743 419-482): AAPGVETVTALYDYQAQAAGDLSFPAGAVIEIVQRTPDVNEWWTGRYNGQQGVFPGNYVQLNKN

SPOT intensity | Binder
0 | NLPKRKPPKLQGPFS
0 | DRIRMFIRFPKFLLE
9 | RKRAPTPPAPSRSEK

biological target: T11, Abp1, P15891; experiment: SPOT array; conditions: median of control spots 935

SPOT intensity | Binder
202 | NLPKRKPPKLQGPFS
108 | DRIRMFIRFPKFLLE
274 | RKRAPTPPAPSRSEK

biological target: T12, Bbc1, P47068; experiment: SPOT array; conditions: median of control spots 796

SPOT intensity | Binder
31 | NLPKRKPPKLQGPFS
43 | DRIRMFIRFPKFLLE
105 | RKRAPTPPAPSRSEK

biological target: T13, Hof1, Q05080; experiment: SPOT array; conditions: median of control spots 4086

SPOT intensity | Binder
24 | NLPKRKPPKLQGPFS
21 | DRIRMFIRFPKFLLE
0 | RKRAPTPPAPSRSEK

biological target: T14, Cyk3, Q07533; experiment: SPOT array; conditions: median of control spots 1451

SPOT intensity | Binder
1 | NLPKRKPPKLQGPFS
2 | DRIRMFIRFPKFLLE
1 | RKRAPTPPAPSRSEK

biological target: T15, Nbp2, Q12163; experiment: SPOT array; conditions: median of control spots 357

SPOT intensity | Binder
56 | NLPKRKPPKLQGPFS
52 | DRIRMFIRFPKFLLE
283 | RKRAPTPPAPSRSEK

biological target: T16, Boi2, P39969; experiment: SPOT array; conditions: median of control spots 1161

SPOT intensity | Binder
1 | NLPKRKPPKLQGPFS
3 | DRIRMFIRFPKFLLE
0 | RKRAPTPPAPSRSEK

biological target: Bem1-1, P29366; experiment: SPOT array; conditions: median of control spots 4282
Sequence (P29366 55-141): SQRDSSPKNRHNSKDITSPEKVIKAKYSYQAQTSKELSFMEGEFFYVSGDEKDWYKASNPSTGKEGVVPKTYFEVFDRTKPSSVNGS

SPOT intensity | Binder
0 | NLPKRKPPKLQGPFS
0 | DRIRMFIRFPKFLLE
1 | RKRAPTPPAPSRSEK

biological target: T17, Hse1, P38753; experiment: SPOT array; conditions: median of control spots 1727

SPOT intensity | Binder
440 | NLPKRKPPKLQGPFS
17 | DRIRMFIRFPKFLLE
3 | RKRAPTPPAPSRSEK

biological target: T18, Pin3, Q06449; experiment: SPOT array; conditions: median of control spots 2171

SPOT intensity | Binder
6 | NLPKRKPPKLQGPFS
30 | DRIRMFIRFPKFLLE
7 | RKRAPTPPAPSRSEK

biological target: T19, Bzz1-2, P38822; experiment: SPOT array; conditions: median of control spots 4538

SPOT intensity | Binder
49 | NLPKRKPPKLQGPFS
0 | DRIRMFIRFPKFLLE
946 | RKRAPTPPAPSRSEK

biological target: T20, Lsb3, P43603; experiment: SPOT array; conditions: median of control spots 406

SPOT intensity | Binder
4 | NLPKRKPPKLQGPFS
6 | DRIRMFIRFPKFLLE
8 | RKRAPTPPAPSRSEK

biological target: T21, Pex13, P80667; experiment: SPOT array; conditions: median of control spots 1341

SPOT intensity | Binder
11 | NLPKRKPPKLQGPFS
38 | DRIRMFIRFPKFLLE
6 | RKRAPTPPAPSRSEK
